Consider 16 molecules from US11345725B2, “Bis-thioether stapled peptides as inhibitors of PRC2 function” (Research Foundation of the City University of New York, priority 2019, dated 2022).

Starred links: 1 amine or outer side, 2 acyl side, 3 side chain; linkers in the order of their positions; H or OH if unused. Positions of bridges follow the written chain, without caps; N, C: chain ends. Residues, ends and D or L forms follow the SMILES beside them. Octanediyl(1,8) = C(CCCC[*:2])CCC[*:1]; X5 = C(CCC[*:1])CCC[*:2]; X6 = C(=C\C[*:2])/C[*:1]; X4 = C(CCC[*:2])CC[*:1]; X2 = C(CC[*:1])CC[*:2]; X3 = C(CC[*:2])C[*:1]; X1 = C(C[*:1])C[*:2]

The nature of this data set: circular dichroism. The following applies: deionized water; pH unbuffered; 20 °C; 25 uM.
Take `CC[C@H](C)[C@H](NC(=O)[C@H](CCC(N)=O)NC(=O)[C@@H](NC(=O)[C@@H]1CSCCCSC[C@H](NC(=O)[C@H](CC(C)C)NC(=O)[C@H](Cc2c[nH]c3ccccc23)NC(=O)[C@H](CCC(=O)O)NC(C)=O)C(=O)N[C@@H](CCC(=O)O)C(=O)N[C@@H](CCCCN)C(=O)N[C@@H]([C@@H](C)O)C(=O)N1)[C@@H](C)O)C(=O)N[C@@H](CCC(=O)O)C(=O)N[C@@H](CCC(=O)O)C(=O)N[C@@H](Cc1ccccc1)C(N)=O` (Ac-EWLCEKTCTQIEEF-NH2; linker 4-8 via X1): the helicity amounted to 38.4%. Molecule `CC[C@H](C)[C@H](NC(=O)[C@H](CCC(N)=O)NC(=O)[C@@H](NC(=O)[C@@H]1CSCCCCCSC[C@H](NC(=O)[C@H](CC(C)C)NC(=O)[C@H](Cc2c[nH]c3ccccc23)NC(=O)[C@H](CCC(=O)O)NC(C)=O)C(=O)N[C@@H](CCC(=O)O)C(=O)N[C@@H](CCCCN)C(=O)N[C@@H]([C@@H](C)O)C(=O)N1)[C@@H](C)O)C(=O)N[C@@H](CCC(=O)O)C(=O)N[C@@H](CCC(=O)O)C(=O)N[C@@H](Cc1ccccc1)C(N)=O` (Ac-EWLCEKTCTQIEEF-NH2; linker 4-8 via X2) yielded a helicity of 19.7%. For the molecule `CC[C@H](C)[C@H](NC(=O)[C@H](CC(C)C)NC(=O)[C@H](Cc1ccccc1)NC(=O)[C@H](CC(=O)O)NC(=O)[C@H](Cc1c[nH]cn1)NC(=O)[C@H](CCSC)NC(=O)[C@H](CO)NC(=O)[C@@H](NC(=O)[C@@H]1CSCCCCCSC[C@H](NC(=O)[C@H](CC(N)=O)NC(=O)[C@H](CCCNC(=N)N)NC(=O)[C@H](CS)NC(=O)[C@H](CC(C)C)NC(C)=O)C(=O)N[C@@H](CCSC)C(=O)N[C@@H](CC(C)C)C(=O)N[C@@H](Cc2c[nH]cn2)C(=O)N1)C(C)C)C(N)=O` (Ac-LCRNCMLHCVSMHDFLI-NH2; linker 5-9 via X2), the helicity worked out at 61.6%.

Regarding `CC[C@H](C)[C@@H]1NC(=O)[C@@H](NC(=O)[C@H](CC(=O)O)NC(=O)[C@@H](NC(=O)[C@@H](NC(C)=O)[C@@H](C)O)C(C)C)CSCCCSC[C@@H](C(=O)N[C@@H](CC(C)C)C(=O)N[C@@H](CO)C(=O)N[C@H](C(=O)N[C@@H](CC(C)C)C(=O)N[C@@H](C)C(=O)N[C@@H](CCC(=O)O)C(=O)N[C@@H](CCC(=O)O)C(=O)N[C@H](C(=O)N2CCC[C@H]2C(=O)N[C@@H](CCC(N)=O)C(=O)N[C@@H](CC(N)=O)C(N)=O)C(C)C)C(C)C)NC(=O)[C@H](CO)NC(=O)[C@H](C)NC1=O` (Ac-TVDCIASCLSVLAEEVPQN-NH2; linker 4-8 via X1), the helicity amounted to 23%. Molecule `CC[C@H](C)[C@@H]1NC(=O)[C@@H](NC(=O)[C@H](CC(=O)O)NC(=O)[C@@H](NC(=O)[C@@H](NC(C)=O)[C@@H](C)O)C(C)C)CSCCCCCSC[C@@H](C(=O)N[C@@H](CC(C)C)C(=O)N[C@@H](CO)C(=O)N[C@H](C(=O)N[C@@H](CC(C)C)C(=O)N[C@@H](C)C(=O)N[C@@H](CCC(=O)O)C(=O)N[C@@H](CCC(=O)O)C(=O)N[C@H](C(=O)N2CCC[C@H]2C(=O)N[C@@H](CCC(N)=O)C(=O)N[C@@H](CC(N)=O)C(N)=O)C(C)C)C(C)C)NC(=O)[C@H](CO)NC(=O)[C@H](C)NC1=O` (Ac-TVDCIASCLSVLAEEVPQN-NH2; linker 4-8 via X2) displayed a helicity of 9%.

`CC[C@H](C)[C@H](NC(=O)[C@H](CCCCN)NC(=O)[C@H](CC(=O)O)NC(=O)[C@@H](NC(=O)[C@@H](NC(C)=O)[C@@H](C)O)C(C)C)C(=O)N[C@@H](C)C(=O)N[C@@H](CO)C(=O)N[C@@H](C)C(=O)N[C@H]1CSCCCCCCCCSC[C@@H](C(=O)N2CCC[C@H]2C(=O)N[C@@H](CCC(N)=O)C(=O)N[C@@H](CC(N)=O)C(N)=O)NC(=O)[C@H](CCC(=O)O)NC(=O)[C@H](CCC(=O)O)NC(=O)[C@H](C)NC(=O)[C@H](CC(C)C)NC(=O)[C@H](C(C)C)NC(=O)[C@H](CO)NC1=O` (Ac-TVDKIASACSVLAEECPQN-NH2; linker 9-16 via Octanediyl(1,8)) showed a helicity of 12.1%.

Molecule `CC[C@H](C)[C@H](NC(=O)[C@H](CCCCN)NC(=O)[C@H](CC(=O)O)NC(=O)[C@@H](NC(=O)[C@@H](NC(C)=O)[C@@H](C)O)C(C)C)C(=O)N[C@@H](C)C(=O)N[C@@H](CO)C(=O)N[C@@H](C)C(=O)N[C@H]1CSCCCCCCSC[C@@H](C(=O)N2CCC[C@H]2C(=O)N[C@@H](CCC(N)=O)C(=O)N[C@@H](CC(N)=O)C(N)=O)NC(=O)[C@H](CCC(=O)O)NC(=O)[C@H](CCC(=O)O)NC(=O)[C@H](C)NC(=O)[C@H](CC(C)C)NC(=O)[C@H](C(C)C)NC(=O)[C@H](CO)NC1=O` (Ac-TVDKIASACSVLAEECPQN-NH2; linker 9-16 via X4) showed a helicity of 8.7%.

`CC[C@H](C)[C@H](NC(=O)[C@H](CCCCN)NC(=O)[C@H](CC(=O)O)NC(=O)[C@@H](NC(=O)[C@@H](NC(C)=O)[C@@H](C)O)C(C)C)C(=O)N[C@@H](C)C(=O)N[C@@H](CO)C(=O)N[C@@H](C)C(=O)N[C@H]1CSCCCCCCCSC[C@@H](C(=O)N2CCC[C@H]2C(=O)N[C@@H](CCC(N)=O)C(=O)N[C@@H](CC(N)=O)C(N)=O)NC(=O)[C@H](CCC(=O)O)NC(=O)[C@H](CCC(=O)O)NC(=O)[C@H](C)NC(=O)[C@H](CC(C)C)NC(=O)[C@H](C(C)C)NC(=O)[C@H](CO)NC1=O` (Ac-TVDKIASACSVLAEECPQN-NH2; linker 9-16 via X5) yielded a helicity of 13.7%.

The molecule `CC[C@H](C)[C@H](NC(=O)[C@@H]1CSCCCSC[C@H](NC(=O)[C@@H](NC(=O)[C@@H](NC(C)=O)C(C)C)[C@@H](C)CC)C(=O)N[C@@H](CCC(=O)O)C(=O)N[C@@H](CCC(=O)O)C(=O)N[C@@H](Cc2ccc(O)cc2)C(=O)N1)C(=O)N[C@@H](Cc1c[nH]c2ccccc12)C(=O)N[C@@H](CCCCN)C(=O)N[C@@H](CCCCN)C(=O)N[C@@H](CC(N)=O)C(=O)N[C@H](C(=O)N1CCC[C@H]1C(=O)N[C@@H](Cc1ccccc1)C(=O)N[C@@H](CC(C)C)C(N)=O)[C@@H](C)O` (Ac-VICEEYCIWKKNTPFL-NH2; linker 3-7 via X1) returned a helicity of 12.7%.

As for `CC[C@H](C)[C@H](NC(=O)[C@@H]1CSCCCCCSC[C@H](NC(=O)[C@@H](NC(=O)[C@@H](NC(C)=O)C(C)C)[C@@H](C)CC)C(=O)N[C@@H](CCC(=O)O)C(=O)N[C@@H](CCC(=O)O)C(=O)N[C@@H](Cc2ccc(O)cc2)C(=O)N1)C(=O)N[C@@H](Cc1c[nH]c2ccccc12)C(=O)N[C@@H](CCCCN)C(=O)N[C@@H](CCCCN)C(=O)N[C@@H](CC(N)=O)C(=O)N[C@H](C(=O)N1CCC[C@H]1C(=O)N[C@@H](Cc1ccccc1)C(=O)N[C@@H](CC(C)C)C(N)=O)[C@@H](C)O` (Ac-VICEEYCIWKKNTPFL-NH2; linker 3-7 via X2), the helicity stood at 11%. As for `CC[C@H](C)[C@H](NC(=O)[C@@H]1CSCCCCSC[C@H](NC(=O)[C@@H](NC(=O)[C@@H](NC(C)=O)C(C)C)[C@@H](C)CC)C(=O)N[C@@H](CCC(=O)O)C(=O)N[C@@H](CCC(=O)O)C(=O)N[C@@H](Cc2ccc(O)cc2)C(=O)N1)C(=O)N[C@@H](Cc1c[nH]c2ccccc12)C(=O)N[C@@H](CCCCN)C(=O)N[C@@H](CCCCN)C(=O)N[C@@H](CC(N)=O)C(=O)N[C@H](C(=O)N1CCC[C@H]1C(=O)N[C@@H](Cc1ccccc1)C(=O)N[C@@H](CC(C)C)C(N)=O)[C@@H](C)O` (Ac-VICEEYCIWKKNTPFL-NH2; linker 3-7 via X3), the figure is 11.5%; as for `CC[C@H](C)[C@H](NC(=O)[C@@H]1CSCCCCCCSC[C@H](NC(=O)[C@@H](NC(=O)[C@@H](NC(C)=O)C(C)C)[C@@H](C)CC)C(=O)N[C@@H](CCC(=O)O)C(=O)N[C@@H](CCC(=O)O)C(=O)N[C@@H](Cc2ccc(O)cc2)C(=O)N1)C(=O)N[C@@H](Cc1c[nH]c2ccccc12)C(=O)N[C@@H](CCCCN)C(=O)N[C@@H](CCCCN)C(=O)N[C@@H](CC(N)=O)C(=O)N[C@H](C(=O)N1CCC[C@H]1C(=O)N[C@@H](Cc1ccccc1)C(=O)N[C@@H](CC(C)C)C(N)=O)[C@@H](C)O` (Ac-VICEEYCIWKKNTPFL-NH2; linker 3-7 via X4), 19.4%; as for `CC[C@H](C)[C@H](NC(=O)[C@@H]1CSC/C=C/CSC[C@H](NC(=O)[C@@H](NC(=O)[C@@H](NC(C)=O)C(C)C)[C@@H](C)CC)C(=O)N[C@@H](CCC(=O)O)C(=O)N[C@@H](CCC(=O)O)C(=O)N[C@@H](Cc2ccc(O)cc2)C(=O)N1)C(=O)N[C@@H](Cc1c[nH]c2ccccc12)C(=O)N[C@@H](CCCCN)C(=O)N[C@@H](CCCCN)C(=O)N[C@@H](CC(N)=O)C(=O)N[C@H](C(=O)N1CCC[C@H]1C(=O)N[C@@H](Cc1ccccc1)C(=O)N[C@@H](CC(C)C)C(N)=O)[C@@H](C)O` (Ac-VICEEYCIWKKNTPFL-NH2; linker 3-7 via X6), 19%. `CC[C@H](C)[C@@H]1NC(=O)[C@@H](NC(=O)[C@H](Cc2ccc(O)cc2)NC(=O)[C@H](CCC(=O)O)NC(=O)[C@H](CCC(=O)O)NC(=O)[C@H](CC(N)=O)NC(=O)[C@@H](NC(=O)[C@@H](NC(C)=O)C(C)C)[C@@H](C)CC)CSCCCSC[C@@H](C(=O)N[C@@H](CC(N)=O)C(=O)N[C@H](C(=O)N2CCC[C@H]2C(=O)N[C@@H](Cc2ccccc2)C(=O)N[C@@H](CC(C)C)C(N)=O)[C@@H](C)O)NC(=O)[C@H](CCCCN)NC(=O)[C@H](Cc2c[nH]c3ccccc23)NC1=O` (Ac-VINEEYCIWKCNTPFL-NH2; linker 7-11 via X1): the helicity was found to be 18.4%.

For the molecule `CC[C@H](C)[C@@H]1NC(=O)[C@@H](NC(=O)[C@H](Cc2ccc(O)cc2)NC(=O)[C@H](CCC(=O)O)NC(=O)[C@H](CCC(=O)O)NC(=O)[C@H](CC(N)=O)NC(=O)[C@@H](NC(=O)[C@@H](NC(C)=O)C(C)C)[C@@H](C)CC)CSCCCCCSC[C@@H](C(=O)N[C@@H](CC(N)=O)C(=O)N[C@H](C(=O)N2CCC[C@H]2C(=O)N[C@@H](Cc2ccccc2)C(=O)N[C@@H](CC(C)C)C(N)=O)[C@@H](C)O)NC(=O)[C@H](CCCCN)NC(=O)[C@H](Cc2c[nH]c3ccccc23)NC1=O` (Ac-VINEEYCIWKCNTPFL-NH2; linker 7-11 via X2), the helicity came out at 5.68%. For `CC[C@H](C)[C@@H]1NC(=O)[C@@H](NC(=O)[C@H](Cc2ccc(O)cc2)NC(=O)[C@H](CCC(=O)O)NC(=O)[C@H](CCC(=O)O)NC(=O)[C@H](CC(N)=O)NC(=O)[C@@H](NC(=O)[C@@H](NC(C)=O)C(C)C)[C@@H](C)CC)CSCCCCSC[C@@H](C(=O)N[C@@H](CC(N)=O)C(=O)N[C@H](C(=O)N2CCC[C@H]2C(=O)N[C@@H](Cc2ccccc2)C(=O)N[C@@H](CC(C)C)C(N)=O)[C@@H](C)O)NC(=O)[C@H](CCCCN)NC(=O)[C@H](Cc2c[nH]c3ccccc23)NC1=O` (Ac-VINEEYCIWKCNTPFL-NH2; linker 7-11 via X3), the helicity amounted to 16.5%.
